According to paper PMC7891725, “Shared and distinct roles of Esc2 and Mms21 in suppressing genome rearrangements and regulating intracellular sumoylation” (PLoS ONE, 2021):

Target: T1, N-terminal Protein-A tagged Esc2 (WT) (S. cerevisiae, UniProt Q06340 1-456)
T1 construct: Esc2, S. cerevisiae, protein with two SUMO-like domains (SLD1, SLD2); details of plasmid construction are available upon request; also called WT Esc2; ScEsc2; source: bacteria (BL21 cells), purified with IgG sepharose resin; not shown: Protein A, N-terminal, kept
T1 sequence (looked up): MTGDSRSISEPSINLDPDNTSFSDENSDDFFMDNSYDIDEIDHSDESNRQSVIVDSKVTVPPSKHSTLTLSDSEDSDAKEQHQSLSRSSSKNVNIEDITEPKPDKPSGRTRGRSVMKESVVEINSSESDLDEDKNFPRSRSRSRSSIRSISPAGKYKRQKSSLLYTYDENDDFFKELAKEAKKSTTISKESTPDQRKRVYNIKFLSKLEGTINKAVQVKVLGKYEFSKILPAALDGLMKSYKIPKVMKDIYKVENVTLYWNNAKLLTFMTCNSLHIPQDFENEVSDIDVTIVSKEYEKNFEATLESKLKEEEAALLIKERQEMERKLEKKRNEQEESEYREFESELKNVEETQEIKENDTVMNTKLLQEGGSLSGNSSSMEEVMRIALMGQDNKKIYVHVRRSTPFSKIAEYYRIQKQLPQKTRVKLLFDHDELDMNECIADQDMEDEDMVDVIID
Experiment: pull-down; 40 ug Protein-A-Esc2 (WT or D430R) bound to 20 uL IgG resin, incubated with 100 ug purified Ubc9 in 200 uL for 2 hours on ice; washed 5 times with PBS with 0.2% NP-40; bound Ubc9 eluted and seen by Coomassie staining
Details: both partners purified

binding result: binds
B1: C-terminal 6xHIS tagged Ubc9 (enzyme, S. cerevisiae, UniProt P50623 1-157, looked up)
chain: MSSLCLQRLQEERKKWRKDHPFGFYAKPVKKADGSMDLQKWEAGIPGKEGTNWAGGVYPITVEYPNEYPSKPPKVKFPAGFYHPNVYPSGTICLSILNEDQDWRPAITLKQIVLGVQDLLDSPNPNSPAQEPAWRSFSRNKAEYDKKVLLQAKQYSK
notes: Ubc9, SUMO E2 conjugating enzyme, S. cerevisiae; also called Ubc9 SUMO conjugating enzyme; E2
